This is an account of results in US20220323495A1 (NATIONAL RESEARCH COUNCIL OF CANADA, published 2022).

Experiment [1] has as its target T1, recombinant human wild-type EGFR protein, native (human, UniProt P00533 25-645).
T1 construct: Recombinant protein used as ELISA coat; also called EGFRwt; wt EGFR
The experiment in a line: ELISA on coated native recombinant antigen; Exp 1, mAb supernatant. The procedure:
(§1) Pre- and post-immune sera titers of animals were assessed by ELISA on recombinant EGFRvIII protein. Unless otherwise stated, all incubations were performed at room temperature. Briefly, half-area 96-well plates (Costar #3690) were coated with 25 μl per well of immunogen at 5 μg/ml in PBS and incubated overnight at 4° C. Microplates were washed three times in PBS and blocked for 30 min with PBS containing 1% bovine serum albumin (BSA, Sigma Cat#A7030). Blocking buffer was removed and 25 μl of serial dilutions of sera samples were added. After a 2-h incubation, microplates were washed 4 times with PBS-TWEEN™ 20 0.05% and 25 μl of a 1/5,000 dilution of alkaline phosphatase conjugated F(ab′)′₂ goat anti-mouse IgG (H+L, #115-056-062, Jackson Immunoresearch, Cedarlane, Burlington, ON) in blocking buffer was added. After a 1-h incubation, microplates were washed 4 times and 25 μl of p-nitrophenyl phosphate (pNPP) substrate (Sigma-Aldrich Canada Co., Oakville, ON) at 1 mg/ml in carbonate buffer at pH 9.6 was added and further incubated for 30 min. Absorbance was read at 405 nm using a SpectraMax 340 PC plate reader (Molecular Devices, Sunnyvale, Calif.).
(§2) To evaluate if monoclonal antibodies bind to a conformational epitope, an ELISA analysis on native and denatured recombinant human wild-type EGFR and EGFRvIII proteins were performed. […] Antigens at 1-2 mg/ml were denatured by incubation at 95° C. for 5 min in PBS containing DTT at 40 mM final concentration. They were then incubated on ice for 5 min and diluted at their final coating concentration for ELISA purpose.
(§3) mAbs were purified using HiTrap ProteinG HP 1 mL columns GE Healthcare cat no. 17-0404-01 and desalted using Zeba-spin desalting columns 5 mL (Pierce) pre-equilibrated in PBS and filter sterilized through […] membrane (Millipore). The final concentration of the antibody solutions was determined using a Nano-drop 2000 (ThermoScientific), using IgG as sample type. ELISA was performed as described above (serum titer determination) using 25 μl of mAb supernatant (Exp 1) or purified mAb at 1 μg/ml (Exp 2).
In general terms: In an ELISA, binding on a coated surface is turned into a signal by an enzyme label.

The target of experiment [2] is T2, recombinant human EGFRvIII protein, native (human, UniProt P00533 298-623).
T2 construct: Recombinant extracellular domain used as immunogen and ELISA coat; also called EGFRvIII Native
The experiment is described as above. The procedure:
as §1, §2, §3

In experiment [3] the target is T3, recombinant human EGFRvIII protein, denatured (human, UniProt P00533 298-623).
T3 construct: Same protein as m9 after denaturation (95 °C for 5 min in PBS with 40 mM DTT); also called EGFRvIII Denatured
The experiment can be described thus: ELISA on coated denatured recombinant antigen; Exp 1, mAb supernatant. The procedure: as §1, §2, §3

The target of experiment [4] is T4, recombinant human wild-type EGFR protein, denatured (human, UniProt P00533 25-645).
T4 construct: Same protein as m11 after denaturation (95 °C for 5 min in PBS with 40 mM DTT); also called EGFRwt Denatured
The description is as above. The procedure: as §1, §2, §3

In experiment [5] the target is T1, recombinant human wild-type EGFR …. The experiment can be described thus: ELISA on coated native recombinant antigen; Exp 2, purified mAb 1 µg/ml. The procedure: as §1, §2, §3
Experiment [6] has as its target T2, recombinant human EGFRvIII protein, …. The description is as above. The procedure: as §1, §2, §3
For experiment [7], the target named is T5, human EGFRvIII amino acid residues 15 to 37, yeast-displayed (human, not fully specified).
T5 construct: also called EGFRvIII 15-37 fragment; aa 15-37
T5 peptide: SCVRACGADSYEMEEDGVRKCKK
The experiment in a line: yeast display; smallest EGFRvIII fragment the antibody was able to bind. An excerpt: (§4) Assessment of the binding of anti-EGFRvIII monoclonal antibodies to the fusion proteins expressed on yeast cell surface was done by flow cytometry analysis. Yeast cells were labeled with both the anti-EGFRvIII monoclonal antibody and chicken anti-Myc antibody the latter being used to monitor the level of expression of the fusion protein. Following a wash step, binding of the primary antibodies is probed by a two-color indirect fluorescence labeling using a specific mouse and chicken secondary antibodies for each of the primary antibody respectively.

The target of experiment [8] is T3, recombinant human EGFRvIII protein, …. The experiment in a line: ELISA on coated denatured recombinant antigen; Exp 2, purified mAb 1 µg/ml. The procedure: as §1, §2, §3
Experiment [9] concerns the target T4, recombinant human wild-type EGFR …. The description is as above. The procedure:
as §1, §2, §3

For experiment [10], the target named is T6, EGFRvIII amino acid residues 15 to 37 with Met27 to Ala mutation, yeast-displayed (human, not fully specified).
T6 construct: The entry already carries the mutation
T6 peptide: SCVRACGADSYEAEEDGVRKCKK
The experiment in a line: flow cytometry on yeast displaying the Ala-mutated 15-37 fragment; normalized to Myc-tag; wild-type fragment = 100%.
From the text: as §4
(§5) To further characterize mAb epitopes within the EGFRvIII 15-37 region, an alanine scan of this region was performed, and modified fragments were expressed at the surface of the yeast. […] The resulting DNAs were expressed at the surface of the yeast and each anti-EGFRvIII mAbs was tested on the corresponding yeast mutant strain by flow cytometry analysis. The original Ala19 and Ala22 were not mutated. Thus, this assay determined the contribution of each amino acid(s) in mAb binding in comparison to the original wild-type fragment (SEQ ID NO:5) which is attributed the value of 100%.
(In general: A flow cytometer gives signals particle by particle.)

The target in experiment [11] is T7, EGFRvIII amino acid residues 15 to 37 with Glu29 to Ala mutation, yeast-displayed (human, not fully specified).
T7 construct: The entry already carries the mutation
T7 peptide: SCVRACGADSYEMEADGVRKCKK
The description is as above.
From the text: as §4, §5

For experiment [12], the target named is T8, EGFRvIII amino acid residues 15 to 37 with Lys34 to Ala mutation, yeast-displayed (human, not fully specified).
T8 construct: The entry already carries the mutation
T8 peptide: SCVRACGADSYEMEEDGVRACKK
The description is as above.
From the text: as §4, §5

B1: F269-3D12 anti-EGFRvIII monoclonal antibody (antibody, V domains shown)
VH: EVQLQQSGPELVKPGSSVRISCKASGYTFTDYNMDWVKQSHGKSLEWIGTINPNNGGTSYNQKFKGKATLTVDKSSSTAYMELRSLTSEDSAVYYCARVRQLGLWFAYWGQGTLVTVSA
VL: EIVLTQSPALMAASPGEKVTITCSVSSSISSSNLHWYQQKSETSPKPWIYGTSNLASGVPVRFSGSGSGTSYSLTISSMEAEDAATYYCQQWSSYPLTFGSGTKLEIK
notes: Mouse hybridoma IgG, tested as supernatant or Protein G purified mAb; also called 3D12-2
On to B1, for which the “ELISA absorbance (405 nm)” value in experiment [1] is 0.095 A405; in experiment [2], 1.17 A405; in experiment [3] it was 1.86 A405; in experiment [4], 0.045 A405; in [5], 0.011 A405; in experiment [6], 1.12 A405. The “ELISA absorbance (405 nm)” value in experiment [8] was found to be 0.517 A405; in [9] it was 0.001 A405. Moreover, in [7], the binding result is recorded as “binds”. Moreover, the “% of binding compared to the wild-type sequence” value in experiment [10] stood at 75.3%; in experiment [11], 47.7%; in experiment [12], 137%.

B2: F265-5B7 anti-EGFRvIII monoclonal antibody (antibody, V domains shown)
VH: QIQLVQSGPELKKPGETVMISCKASGYSFTNYGMNWVKQAPEKDLKWMGWINTYTGESRYVDEFKGRFAFSLETSVSIVYLKINNLKNEDMATYFCARGPNFDVWGTGTTVTVSS
VL: not shown
notes: Mouse hybridoma IgG, tested as supernatant or Protein G purified mAb; also called 5B7-2
For the molecule B2, the “ELISA absorbance (405 nm)” value is 0.008 A405 in experiment [1]; 1.14 A405 in experiment [2]; 1.67 A405 in experiment [3]; 0.046 A405 in experiment [4]; 0.002 A405 in experiment [5]; 0.874 A405 in [6]. Further, the results for the “ELISA absorbance (405 nm)” value in experiment [8] and in experiment [9] were 0.623 A405 and 0 A405, respectively. Also, the binding result in [7] is given as “binds”. In addition, the results for the “% of binding compared to the wild-type sequence” value in experiment [10], in [11] and in experiment [12] were 111%, 110% and 193%, respectively.
